Laboratory results from patent US20090269786A1.

How the values were obtained:
[1] = molecular target: human ρ1 GABAC receptor (human) (UniProt P24046); assay: flow cytometry on SHp5-ρ1 cells, antibody at 1/1,000 dilution
[2] = molecular target: human ρ1 GABAC receptor (human) (UniProt P24046); assay: flow cytometry on SHp5-ρ1 cells, antibody at 1/25 or 1/50 dilution

Chain of UniProt P24046 (P24046 22-479): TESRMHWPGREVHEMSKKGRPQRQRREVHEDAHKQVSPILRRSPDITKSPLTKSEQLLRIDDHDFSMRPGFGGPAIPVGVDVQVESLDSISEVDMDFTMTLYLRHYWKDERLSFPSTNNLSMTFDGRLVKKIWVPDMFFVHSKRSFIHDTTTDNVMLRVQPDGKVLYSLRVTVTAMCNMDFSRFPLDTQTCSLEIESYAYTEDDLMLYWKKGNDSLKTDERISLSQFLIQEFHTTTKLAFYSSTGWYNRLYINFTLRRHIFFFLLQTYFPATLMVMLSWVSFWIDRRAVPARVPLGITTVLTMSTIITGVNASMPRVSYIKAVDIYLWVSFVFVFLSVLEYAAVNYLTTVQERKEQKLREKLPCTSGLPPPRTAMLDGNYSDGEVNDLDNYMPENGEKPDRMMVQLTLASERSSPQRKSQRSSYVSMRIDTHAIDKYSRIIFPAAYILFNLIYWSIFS

Substance: affinity-purified GABAC Ab N-14 (antibody)
- percent positive cells [1]: 47%
- percent positive cells [2]: 63%
